Biological target: SARS-CoV-2 RBD, truncated version (residues 333–529) (SARS-CoV-2, UniProt P0DTC2)
Assay: crystal structure
Settings: both partners purified

B1: COVA1–16 Fab (Fab, V domains shown)
VH: QVQLVQSGAEVKKPGASVKVSCKASGYTFTSYYMHWVRQAPGQGLEWMGIINSSGGSTSYAQKFQGRVTMTRDTSTSTVYMELSSLRSEDTAVYYCARPPRNYYDRSGYYQRAEYFQHWGQGTLVTVSS
VL: DIQLTQSPSSLSASVGDRVTITCQASQDISNYLNWYQQRPGKAPKLLIYDASNLETGVPSRFSGSGSGTDFTFTISSLQPEDIATYYCQQYDNPPLTFGGGTKLEIK
notes: also called Fab COVA1–16
binding result: binds

Source: doi:10.1101/2021.04.01.437942 (bioRxiv, 2021)
